Test results from article PMC2169435.

How the values were obtained:
[1] = molecular target: PS1 COOH-terminal bait (human); assay: two-hybrid
[2] = molecular target: PS2 COOH-terminal 39-amino acid bait (residues K410-I448) (human) (UniProt P49810); assay: two-hybrid
Sequence of PS2 COOH-terminal 39-amino acid bait (residues K410-I448) (human) (P49810 410-448): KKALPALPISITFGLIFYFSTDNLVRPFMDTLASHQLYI

| fold beta-galactosidase activity over negative-control baits [1] [fold] | fold beta-galactosidase activity over negative-control baits [2] [fold] | Substance |
| --- | --- | --- |
| > 12 | > 55 | near full-length ubiquilin Y2H prey clone (residues 37-595) (domain or fragment) |
| – | > 55 | ubiquilin Y2H prey clone encoding the COOH-terminal 218 residues (domain or fragment) |
